Experimental data taken from FireProtDB (doi:10.1021/bi301421v).
Values joined by “and” are separate entries in the source; they are usually repeats but may differ in a detail not shown here. Equal values may be shown once.

B1: Arginase, O25949 (parent)
chain: MILVGLEAELGASKRGTDKGVRRLREALSATHGDVIKGMQTITQERCVLYKEFRYAKNFEDYYLFCKENLIPCMKEVFEKKEFPLILSSEHANMFGIFQAFRSVHKDKKIGILYLDAHADIHTAYDSDSKHIHGMPLGMVLNRVRSGFNRMSESEEKAWQKLCSLGLEKGGLEIDPKCLVYFGVRSTEQSERDVIRELQIPLFSVDAIRENMQEVVQKTKESLKAVDIIYLSLDLDIMDGKLFTSTGVRENNGLSFDELKQLLGLLLESFKDRLKAVEVTEYNPTVSIKHNNEEEKQVLEILDLIINSCKIKDKKHSFARSY

Variants of: B1
Conditions: Helicobacter pylori (strain ATCC 700392 / 26695); pH 7.2; Thermal; CD; Tris-HCl 20 mM; transition: 2; reversible: yes; structure 4G3H; whole UniProt chain shown

Variant | Tm | change of melting temperature, mutant - wild type (higher = more stable)
D126A | 61 °C | -7 °C
K157A | 57.7 °C | -10.3 °C
L162A |  | -2.7 °C and -7 °C
W159F | 64.8 °C and 59.9 °C | -5.2 °C and -8.1 °C
W159A | 51 °C | -17 °C
E153A | 69.8 °C | -0.2 °C
E156A | 59 °C | -9 °C
Q160A | 64.4 °C and 62.8 °C | -5.6 °C and -5.2 °C
S164A | 70.7 °C | 0.7 °C
